In publication PMC7606508, “Synthesis of two new lipid mediators from docosahexaenoic acid by combinatorial catalysis involving enzymatic and chemical reaction” (Scientific Reports, 2020):

Tests used:
Assay in all cases: purified protein
Type in all cases: biochemical, Phormidium nigroviride
Settings in all cases: 50 mM Tris-HCl pH 8.0, 30 °C, 3 μg/mL enzyme, 25-175 μM substrate
[1] = substrate: CC/C=C\C/C=C\C/C=C\C/C=C\C/C=C\CCCC(=O)O
[2] = substrate: CC/C=C\C/C=C\C/C=C\C/C=C\C/C=C\C/C=C\CCC(=O)O
[3] = substrate: CCCCC/C=C\C/C=C\C/C=C\C/C=C\CCCC(=O)O

B1: Osc-LOX (Phormidium nigroviride PCC 7112) (protein)
chain: MVDNMKPSLPQDDPNQEQRKDSLNRQQQAYQFDYESLSPLALLKNVPAVENFSSKYIGERILATSELPANMLAADSRTFLDPLDELQDYEDFFTLLPLPAVAKIYQTDRSFAEQRLSGANPMVLRLLDAGDPRAQTLAQISSFHPLFDLGQELQQKNIYVADYTGTDEHYRAPSKIGGGSYEKGRKFLPKPRAFFAWRWTGIRDRGEMTPIAIQLDPTPDSHVYTPFDPPVDWLFAKLCVQVADANHHEMSSHLGRTHLVMEPIAIVTARQLAQNHPLSLLLKPHFRFMLTNNELARSYLIAPGGPVDELLGGTLPETMEIAREACSTWSLDEFALPAELKNRGMDDTNQLPHYPYRDDGLLLWDAIETFVSGYLKFFYPTEIAIVQDVELQTWAQELASDRGGKVKGMPPRINTVEQLIKIVTTIIFTCGPQHSAVNFPQYEYMSFAANMPLAAYRDIPKITASGNLEVITEKDILRLLPPYKRAADQLKILFTLSAYRYDRLGYYDKSFRELYRMSFDEVFAGTPIQLLARQFQQNLNMAEQKIDANNQKRVIPYIALKPSLVINSISM
notes: N-terminal His6 tag (pET-28a, NdeI/XhoI) kept; codon-optimized synthetic gene; E. coli BL21(DE3)
- Km [1]: 67.0 ± 3.6 µM
- kcat [1]: 15.6 ± 0.452 s⁻¹
- kcat/Km [1]: 233000 ± 6670 M⁻¹ s⁻¹
- Km [2]: 63.9 ± 4.8 µM
- kcat [2]: 13.9 ± 0.348 s⁻¹
- kcat/Km [2]: 218000 ± 11700 M⁻¹ s⁻¹
- Km [3]: 68.9 ± 3.5 µM
- kcat [3]: 19.6 ± 0.277 s⁻¹
- kcat/Km [3]: 285000 ± 10000 M⁻¹ s⁻¹
